According to US12331324B2, “Versatile peroxidases and uses thereof” (Yeda Research and Development Co. Ltd., priority 2021, dated 2025):

Experiments:
[1] = substrate: OO; test: purified protein, by the assay type; settings: other: H2O2 kinetics with 2 mM ABTS, optimum pH for ABTS, 25° C.
Description: (§5) VPs production and purification. […] An aliquot of cells was removed and used to inoculate 100 mL of minimal medium in a 1 L flask to an OD600 nm of 0.25-0.30, under the same conditions. The cells completed two growth phases (8-10 hours, reaching OD600 nm˜1-1.5), then the expression medium (450 mL) was inoculated with 50 mL of the pre-culture in a 2 L flask (OD600 nm˜0.1). Cells were incubated for a further ˜60 hours at 30° C. and 225 rpm. Thereafter, cells were centrifuged at 6000 g for 15 min at 4° C., and the supernatant was collected and filtered with a 0.2 μm filter bottle.
(§6) The reaction mixtures contained a specific substrate in 100 mM citrate-phosphate-borate buffer (pH 2, 3, 3.5, 4, 5, 6, 7, 8) and 0.1 mM H2O2. […] The following substrate concentrations and absorption wavelengths were used: ABTS: 2 mM, 418 nm; DMP: 5 mM, 469 nm; RB5: 0.05 mM, 598 nm; VA: 30 mM, 310 nm.

[2] = substrate: Nc1c(N=Nc2ccc(S(=O)(=O)CCOS(=O)(=O)O)cc2)c(S(=O)(=O)O)cc2cc(S(=O)(=O)O)c(N=Nc3ccc(S(=O)(=O)CCOS(=O)(=O)O)cc3)c(O)c12; test: purified protein, by the assay type; settings: other: VA, RB5, optimum pH, 25° C., 0.4 mM H2O2
Description: as §5, §6

[3] = substrate: COc1cccc(OC)c1O; test: purified protein, by the assay type; settings: optimum pH, 25° C., 0.4 mM H2O2
Description: as §5, §6

[4] = substrate: COc1ccc(CO)cc1OC; test: purified protein, by the assay type; settings: other: VA, RB5, optimum pH, 25° C., 0.4 mM H2O2
Description: as §5, §6

[5] = substrate: CCn1c(=NN=c2sc3cc(S(=O)(=O)O)ccc3n2CC)sc2cc(S(=O)(=O)O)ccc21; test: purified protein, by the assay type; settings: optimum pH, 25° C., 0.4 mM H2O2
Description: as §5, §6

[6] = substrate: OO; test: Steady-state kinetics (Michaelis-Menten) of purified VP design 11H with peroxidase substrates; assay type: biochemical, Pleurotus ostreatus; settings: other: H2O2 kinetics with 2 mM ABTS, optimum pH for ABTS, 25° C.
Description: (§1) VPs production and purification. A colony from S. cerevisiae clone containing the VP gene (5H, 8H, 11H, VPL_R4, VPL_2-1B) was picked from an SC drop-out plate, inoculated in 25 mL minimal medium in a 250 flask, and incubated for 48 hours at 30° C. and 225 rpm. An aliquot of cells was removed and used to inoculate 100 mL of minimal medium in a 1 L flask to an OD600 nm of 0.25-0.30, under the same conditions. The cells completed two growth phases (8-10 hours, reaching OD600 nm˜1-1.5), then the expression medium (450 mL) was inoculated with 50 mL of the pre-culture in a 2 L flask (OD600 nm˜0.1). Cells were incubated for a further ˜60 hours at 30° C. and 225 rpm. Thereafter, cells were centrifuged at 6000 g for 15 min at 4° C., and the supernatant was collected and filtered with a 0.2 μm filter bottle.
(§2) Filtrates were subjected to fractional precipitation with ammonium sulfate in two steps: first cut of 50%, followed by centrifugation and elimination of the precipitates, and the second cut of 70%. Buffer A was used to dissolve the pellet, and the dissolved protein solution was shaken overnight at 4° C. for maximal recovery. The dissolved fraction was then centrifuged, filtrated, concentrated, and subjected to overnight dialysis against buffer A. Filtered fractions of the VP proteins after dialysis were uploaded into a HiTrap™ Q HP Column (GE Healthcare Bio-Sciences AB, Uppsala, Sweden) pre-equilibrated with buffer A, through ÄKTA pure protein purification system (GE Healthcare Bio-Sciences AB). Proteins were eluted in a two-step linear gradient from 0 to 1 M NaCl, at a flow rate of 1 ml/min: the first phase of 0-25% over 15 column volumes (75 min) and second phase of 25-100% over 2 column volumes (10 min). The fractions of the peak with the highest VP activity (and absorption at 407 nm) were pooled, concentrated, and dialyzed against 20 mM piperazine buffer pH=5.5 and 150 mM NaCl (buffer B). Protein fractions were then uploaded onto a Superdex 75 Increase 10/300 GL (GE Healthcare Bio-Sciences AB) through the ÄKTA pure system pre-equilibrated with buffer B. The fractions of the peak with the highest VP activity (and absorption at 407 nm) were pooled and dialyzed against buffer A. Pure protein samples were stored at 4° C. Protein concentration was determined using the BCA assay with bovine serum albumin as a standard. The obtained Reinheitszahl values (Rz: Abs407 nm/Abs280 nm), which indicate for the purity of peroxidases, were 1 for 8H (due to high tryptophan content) and above 2 for 5H, 11H, R4 and 2-1B.
(§3) pH activity profiles. For purified 5H, 8H, 11H, and R4, 20 μL protein samples (diluted in buffer A) were transferred into activity 96 plates (in the case of VA and MnSO4, UV-Star plates; Greiner Bio-One GmbH, Kremsmünster, Austria) and then, 180 μL of the reaction mixture were added to each row in the plate, and absorption at the appropriate wavelength (substrate-dependent) was recorded immediately in a kinetic mode in a plate-reader at 25° C. The reaction mixtures contained a specific substrate in 100 mM citrate-phosphate-borate buffer (pH 2, 3, 3.5, 4, 5, 6, 7, 8) and 0.1 mM H2O2. The activities were recorded in triplicate. The following substrate concentrations and absorption wavelengths were used: ABTS: 2 mM, 418 nm; DMP: 5 mM, 469 nm; RB5: 0.05 mM, 598 nm; VA: 30 mM, 310 nm. For manganese, the reaction mixtures contained 60 mM MnSO4 in 100 mM sodium tartrate buffer (pH 3, 3.5, 4, 4.5, 5) and 0.1 mM H2O2, and the Mn^3+-tartrate complex absorption was read at 238 nm. For each protein and substrate, the activities were normalized to the activity at optimal pH for residual activity calculations. Each activity assay was conducted in triplicate.
(§4) Kinetic parameters. Steady-state kinetics were determined for 5H, 8H, 11H and R4, by measuring the activity (initial rates) in increasing concentrations of the substrate, and the KM and Kcat values were calculated by fitting the results to the Michaelis-Menten model (V0=KcatES/(KM+S)). […]

[7] = substrate: Nc1c(N=Nc2ccc(S(=O)(=O)CCOS(=O)(=O)O)cc2)c(S(=O)(=O)O)cc2cc(S(=O)(=O)O)c(N=Nc3ccc(S(=O)(=O)CCOS(=O)(=O)O)cc3)c(O)c12; test: as above; assay type: biochemical, Pleurotus ostreatus; settings: other: VA, RB5, optimum pH, 25° C., 0.1 mM H2O2
Description: as §1, §2, §3, §4

[8] = substrate: COc1cccc(OC)c1O; test: as above; assay type: biochemical, Pleurotus ostreatus; settings: optimum pH, 25° C., 0.1 mM H2O2
Description: as §1, §2, §3, §4

[9] = substrate: COc1ccc(CO)cc1OC; test: as above; assay type: biochemical, Pleurotus ostreatus; settings: other: VA, RB5, optimum pH, 25° C., 0.1 mM H2O2
Description: as §1, §2, §3, §4

[10] = substrate: CCn1c(=NN=c2sc3cc(S(=O)(=O)O)ccc3n2CC)sc2cc(S(=O)(=O)O)ccc21; test: as above; assay type: biochemical, Pleurotus ostreatus; settings: optimum pH, 25° C., 0.1 mM H2O2
Description: as §1, §2, §3, §4

B1: Pleurotus ostreatus versatile peroxidase VP5, designed variant 5H, SEQ ID NO: 1 (wild type SEQ ID NO: 4; mutations A11S, V15T, A17S, A19E, P26D, D38G, A40Q, … (protein)
chain: VSLPQKRATCSGGQTTSNEACCVLFDLMEDLQKNLFDGGQCGEQAHEALRLTFHDAIGFSPSRGVMGGADGSVITFSDIETNFPANLGIDDIVEAEKSFLQRHNISAGDLVHFAATLAVTNCPGAPRIPFFLGRPPATAPSPPGLVPEPFDSVTDILARMADAGFSPVEVVWLLSAHSVAAADHVDPTIPGTPFDSTPNLFDSQFFIETQLRGTTFPGTGGNPGEVKSPLPGEMRLQSDHLFARDPRTACEWQSMVNDQQKIQDRFRDTLFKMSMLGQNQDDMIDCSDVIPVPPPLTTKPHLPAGKSKTDVEQACATAPFPTLPADPGPPTSVPPVPPA
Km [1]: 197 ± 20 µM | kcat [1]: 20.3 ± 0.8 s⁻¹ | kcat/Km [1]: 103000 ± 11000 M⁻¹ s⁻¹ | Km [2]: 2.9 ± 1.0 µM | kcat [2]: 0.18 ± 0.04 s⁻¹ | kcat/Km [2]: 62300 ± 25200 M⁻¹ s⁻¹ | Km ([3]; other: high efficiency site): 85.7 ± 16.9 µM | kcat ([3]; other: high efficiency site): 1.2 ± 0.1 s⁻¹ | kcat/Km ([3]; other: high efficiency site): 14400 ± 3000 M⁻¹ s⁻¹ | Km ([3]; other: low efficiency site): 27,700 ± 7,100 μM | kcat ([3]; other: low efficiency site): 5.4 ± 0.6 s⁻¹ | kcat/Km ([3]; other: low efficiency site): 190 ± 50 M⁻¹ s⁻¹ | Km [4]: 158 ± 27 µM | kcat [4]: 0.52 ± 0.02 s⁻¹ | kcat/Km [4]: 3300 ± 600 M⁻¹ s⁻¹ | Km ([5]; other: high efficiency site): 1.9 ± 0.4 µM | kcat ([5]; other: high efficiency site): 1.5 ± 0.1 s⁻¹ | kcat/Km ([5]; other: high efficiency site): 763000 ± 151000 M⁻¹ s⁻¹ | Km ([5]; other: low efficiency site): 765 ± 96 µM | kcat ([5]; other: low efficiency site): 33.2 ± 1.8 s⁻¹ | kcat/Km ([5]; other: low efficiency site): 43400 ± 5900 M⁻¹ s⁻¹

B2: Pleurotus ostreatus versatile peroxidase VP11, designed variant 11H, SEQ ID NO: 3 (wild type SEQ ID NO: 6; mutations A11S, V15T, A17S, P26D, I27L, L28R, E29D, … (protein)
chain: VTLPQKRATCSGGQTTSNAACCVLFDLRDDLQKNLFDGGQCGEEVHESLRLTFHDAIGFSPTKGGGGADGSVLIFSDTELNFPANLGIDEIVEAQKPFLQRHNISAGDLVQFAGALGVSNCPGAPRIPFFLGRPPATAPSPDGLVPEPFDSVDDILARMADAGFSPVEVVWLLSSHTIAAADHVDPTIPGTPFDSTPSIFDSQFFIETQLRGTLFPGTGGNPGEVESPLPGEIRLQSDHLLARDPRTACEWQSMVDNMPKIQNRFAATMLKMSLLGQNVRDLIDCSDVIPTPPPLVGTAHLPAGKTQSDVEQACATTPFPTIPADPGPVTSVPPVPPS
Km [6]: 38.9 ± 6.9 µM | kcat [6]: 7 ± 0.5 s⁻¹ | kcat/Km [6]: 180000 ± 35000 M⁻¹ s⁻¹ | Km [7]: 2.0 ± 0.2 µM | kcat [7]: 0.3 ± 0.01 s⁻¹ | kcat/Km [7]: 152000 ± 20000 M⁻¹ s⁻¹ | Km ([8]; other: high efficiency site): 168 ± 10 µM | kcat ([8]; other: high efficiency site): 1.91 ± 0.04 s⁻¹ | kcat/Km ([8]; other: high efficiency site): 11400 ± 700 M⁻¹ s⁻¹ | Km ([8]; other: low efficiency site): 11,400 ± 2,000 μM | kcat ([8]; other: low efficiency site): 6.3 ± 0.4 s⁻¹ | kcat/Km ([8]; other: low efficiency site): 550 ± 100 M⁻¹ s⁻¹ | Km [9]: 2,000 ± 100 μM | kcat [9]: 1.38 ± 0.03 s⁻¹ | kcat/Km [9]: 680 ± 50 M⁻¹ s⁻¹ | Km ([10]; other: high efficiency site): 6.3 ± 0.7 µM | kcat ([10]; other: high efficiency site): 2.0 ± 0.1 s⁻¹ | kcat/Km ([10]; other: high efficiency site): 314000 ± 37000 M⁻¹ s⁻¹ | Km ([10]; other: low efficiency site): 1,100 ± 90 μM | kcat ([10]; other: low efficiency site): 11.2 ± 0.3 s⁻¹ | kcat/Km ([10]; other: low efficiency site): 10300 ± 900 M⁻¹ s⁻¹
